Here are results for four molecules from patent US20090252717A1, “Compositions and Methods for Treating Polyglutamine-Expansion Neurodegenerative Diseases” (priority 2006, published 2009).

The subject of one assay is fast axonal transport. In words: Vesicle motility assay in isolated squid axoplasm, perfusion of recombinant protein alone. Type of assay: cell-based, squid Loligo pealeii. As to the method:
Recombinant Polypeptides. Wild-type androgen receptor and polyQ-AR polypeptides were produced by in vitro transcription/translation (TNT T7-Coupled Reticulocyte Lysate System; Promega, Madison, Wis.) according to manufacturer's protocols. Typically, 1.8 μg of plasmid was transcribed in 50 μl reaction mix. To assess protein levels, parallel reactions were performed incorporating ^35S-labeled methionine (Amersham) or quantitative immunoblots were performed. Protein concentrations were typically 0.2-0.5 nM. In vitro translated androgen receptor has been characterized and shown to be functional (Kuiper, et al. (1993) Biochem. J. 296(Pt 1):161-7). In vitro translation products were briefly centrifuged to eliminate translation machinery, and supernatants frozen in liquid N2 until used.
Genes encoding human wild-type Huntingtin (Htt) (i.e., Q20, residues 1-548; Szebenyi, et al. (2003) supra) and polyQ-expanded Htt (i.e., Q46, residues 1-949; Qin, et al. (2004) J. Neurosci. 24(1):269-81) were cloned into the pcDNA.3 vector and produced by in vitro transcription/translation as described for the androgen receptor. Alternatively, shorter constructs (Htt exon1) were expressed in E. coli as GST-tagged proteins.
Squid Axoplasm. Isolated squid axoplasm represents a unique experimental system to evaluate axonal-specific effects and pathogenic mechanisms. This model was instrumental in the original discovery of kinesin-1 (Brady (1985) Nature 317:73-75, novel pathways for fast axonal transport (Morfini, et al. (2002) supra; Morfini, et al. (2004) supra), and axonal-specific phosphorylation events (Grant & Pant (2000) J. Neurocytol. 29:843-72). Bidirectional membrane-bound organelle movements are observed with properties unchanged from intact axons for hours after removal of plasma membrane (Brady, et al. (1982) Science 218:1129-1131). Video-enhanced microscopic techniques allow quantitative analysis of membrane-bound organelle movement in fast axonal transport. Typical kinesin-dependent transport rates are 1.5-2.0 μm/s, whereas retrograde, cytoplasmic dynein-dependent rates are 1-1.3 μm/s in perfused axoplasms. These rates are maintained with little (<10%) or no reduction for >1 hour after perfusion with control buffer (Brady, et al. (1982) supra). The lack of permeability barriers allows perfusion of the axoplasm with a variety of effector molecules at known concentrations. Effectors of interest include nucleotides, pharmacological inhibitors, recombinant polypeptides, and antibodies. Typically, 6-His, Hemagglutinin, Myc and GST-tagged recombinant proteins are either expressed in bacteria or in vitro translated, purified and perfused (Szebenyi, et al. (2003) supra; Morfini, et al. (2002) supra).
Motility Studies in Isolated Axoplasm. Axoplasm was extruded from giant axons of the squid Loligo pealeii (Marine Biological Laboratory, Woods Hole, Mass.) as described (Brady, et al. (1985) Cell Motil. 5:81-101). Axons were 400-600 μm in diameter and provided ≈5 μl of axoplasm. […] Preparations were analyzed on a ZEISS AXIOMAT with a 100×, 1.3 n.a. objective, and DIC optics. […] Organelle velocities were measured with a Photonics Microscopy C2117 video manipulator (Hamamatsu).

Another assay deals with T1, kinesin-1 heavy chain (Rattus norvegicus, UniProt P56536).
T1 construct: coding for the first 584 amino acids of rat KHC (KHC-584); made in house; host or cells: E. coli
T1 sequence (P56536 1-584 limits assumed): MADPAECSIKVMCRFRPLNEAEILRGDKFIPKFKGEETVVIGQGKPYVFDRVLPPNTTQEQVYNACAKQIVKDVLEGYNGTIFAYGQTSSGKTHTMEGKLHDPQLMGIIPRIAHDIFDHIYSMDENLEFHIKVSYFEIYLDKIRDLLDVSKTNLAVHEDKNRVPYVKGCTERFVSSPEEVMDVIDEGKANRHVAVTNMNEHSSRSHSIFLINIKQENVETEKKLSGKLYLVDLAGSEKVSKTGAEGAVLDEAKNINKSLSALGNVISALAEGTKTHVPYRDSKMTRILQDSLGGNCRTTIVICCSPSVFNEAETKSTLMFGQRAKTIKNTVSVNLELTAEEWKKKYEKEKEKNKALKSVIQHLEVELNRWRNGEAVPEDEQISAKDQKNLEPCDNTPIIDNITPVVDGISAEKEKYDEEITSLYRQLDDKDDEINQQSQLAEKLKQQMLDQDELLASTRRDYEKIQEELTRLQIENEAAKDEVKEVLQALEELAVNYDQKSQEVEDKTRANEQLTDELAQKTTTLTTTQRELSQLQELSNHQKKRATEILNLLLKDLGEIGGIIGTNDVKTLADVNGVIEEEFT
In words: Binding of kinesin-1 to microtubules after JNK3 treatment. The format is biochemical. The following applies: kinesin-1 heavy chain treated with JNK3 kinase. As to the method:
Microtubule Binding Assays. Microtubule binding assays was performed according to established methods (Stenoien & Brady (1997) supra). Briefly, three 70% confluent 100-mm culture dishes containing either wild-type or 902-6 SH-SY5Y cells were homogenized with 500 μl of HEM buffer (50 mM HEPES, 1 mM EGTA, 2 mM MgSO4, 1% TRITON X-100, pH 7.2, 1 μM staurosporine, 1 μM K252a, 50 nM okadaic acid and 1/100 mammalian protease inhibitor cocktail (Sigma) at 4° C. Lysates were centrifuged at 50000 rpm for 5 minutes at 4° C.
Six hundred μg of total protein from clarified wild-type or 902-6 SH-SY5Y cells were incubated with 0.2 mg of TAXOL-stabilized microtubules (Cytoskeleton, Denver, Colo.) and 2.5 mM AMP-PNP for 30 minutes at 37° C. Samples were centrifuged for 25 minutes at 50000 rpm (4° C.) over a cushion of 20% sucrose in HEM plus 20 μM TAXOL. Pellets and supernatants were collected and the amount of kinesin in each fraction was assayed by immunoblot with anti-kinesin monoclonal antibodies.
In Vitro Kinesin-1 Phosphorylation. A recombinant cDNA fragment coding for the first 584 amino acids of rat KHC (KHC-584) was subcloned into pET expression vector, expressed in E. coli and purified by nickel affinity chromatography (Qiagen, Valencia, Calif.). […]

[1] abbreviates: perfused, concentration not given.

B1: wild-type Htt: human wild-type Huntingtin (Q20, residues 1-548) produced by in vitro transcription/translation (protein, UniProt P42858 1-548, looked up, fragment)
chain: MATLEKLMKAFESLKSFQQQQQQQQQQQQQQQQQQQQQPPPPPPPPPPPQLPQPPPQAQPLLPQPQPPPPPPPPPPGPAVAEEPLHRPKKELSATKKDRVNHCLTICENIVAQSVRNSPEFQKLLGIAMELFLLCSDDAESDVRMVADECLNKVIKALMDSNLPRLQLELYKEIKKNGAPRSLRAALWRFAELAHLVRPQKCRPYLVNLLPCLTRTSKRPEESVQETLAAAVPKIMASFGNFANDNEIKVLLKAFIANLKSSSPTIRRTAAGSAVSICQHSRRTQYFYSWLLNVLLGLLVPVEDEHSTLLILGVLLTLRYLVPLLQQQVKDTSLKGSFGVTRKEMEVSPSAEQLVQVYELTLHHTQHQDHNVVTGALELLQQLFRTPPPELLQTLTAVGGIGQLTAAKEESGGRSRSGSIVELIAGGGSSCSPVLSRKQKGKVLLGEEEALEDDSESRSDVSSSALTASVKDEISGELAASSGVSTPGSAGHDIITEQPRSQHTLQADSVDLASCDLTSSATDGDEEDILSHSSSQVSAVPSDPAMDL
modifications: Q20
notes: human wild-type Huntingtin (Q20, residues 1-548) produced by in vitro transcription/translation
Consider B1, for which the “effect on fast axonal transport” value in the assay on fast axonal transport (perfused alone) is reported as “showed no effect on either direction of fast axonal transport”.

B2: polyQ-Htt: polyQ-expanded Huntingtin (Q46, residues 1-949) produced by in vitro transcription/translation (protein, UniProt P42858 1-949, looked up, fragment)
chain: MATLEKLMKAFESLKSFQQQQQQQQQQQQQQQQQQQQQPPPPPPPPPPPQLPQPPPQAQPLLPQPQPPPPPPPPPPGPAVAEEPLHRPKKELSATKKDRVNHCLTICENIVAQSVRNSPEFQKLLGIAMELFLLCSDDAESDVRMVADECLNKVIKALMDSNLPRLQLELYKEIKKNGAPRSLRAALWRFAELAHLVRPQKCRPYLVNLLPCLTRTSKRPEESVQETLAAAVPKIMASFGNFANDNEIKVLLKAFIANLKSSSPTIRRTAAGSAVSICQHSRRTQYFYSWLLNVLLGLLVPVEDEHSTLLILGVLLTLRYLVPLLQQQVKDTSLKGSFGVTRKEMEVSPSAEQLVQVYELTLHHTQHQDHNVVTGALELLQQLFRTPPPELLQTLTAVGGIGQLTAAKEESGGRSRSGSIVELIAGGGSSCSPVLSRKQKGKVLLGEEEALEDDSESRSDVSSSALTASVKDEISGELAASSGVSTPGSAGHDIITEQPRSQHTLQADSVDLASCDLTSSATDGDEEDILSHSSSQVSAVPSDPAMDLNDGTQASSPISDSSQTTTEGPDSAVTPSDSSEIVLDGTDNQYLGLQIGQPQDEDEEATGILPDEASEAFRNSSMALQQAHLLKNMSHCRQPSDSSVDKFVLRDEATEPGDQENKPCRIKGDIGQSTDDDSAPLVHCVRLLSASFLLTGGKNVLVPDRDVRVSVKALALSCVGAAVALHPESFFSKLYKVPLDTTEYPEEQYVSDILNYIDHGDPQVRGATAILCGTLICSILSRSRFHVGDWMGTIRTLTGNTFSLADCIPLLRKTLKDESSVTCKLACTAVRNCVMSLCSSSYSELGLQLIIDVLTLRNSSYWLVRTELLETLAEIDFRLVSFLEAKAENLHRGAHHYTGLLKLQERVLNNVVIHLLGDEDPRVRHVAAASLIRLVPKLFYKCDQGQADP
modifications: polyQ expanded to Q46
notes: polyQ-expanded Huntingtin (Q46, residues 1-949) produced by in vitro transcription/translation
For the molecule B2, the “effect on fast axonal transport” value in the assay with fast axonal transport (perfused alone) is reported as “striking inhibition of fast axonal transport rates”.

B3: JNK3: recombinant, active JNK3 protein (protein, UniProt P53779 1-464, looked up)
Mitogen-activated protein …: MSLHFLYYCSEPTLDVKIAFCQGFDKQVDVSYIAKHYNMSKSKVDNQFYSVEVGDSTFTVLKRYQNLKPIGSGAQGIVCAAYDAVLDRNVAIKKLSRPFQNQTHAKRAYRELVLMKCVNHKNIISLLNVFTPQKTLEEFQDVYLVMELMDANLCQVIQMELDHERMSYLLYQMLCGIKHLHSAGIIHRDLKPSNIVVKSDCTLKILDFGLARTAGTSFMMTPYVVTRYYRAPEVILGMGYKENVDIWSVGCIMGEMVRHKILFPGRDYIDQWNKVIEQLGTPCPEFMKKLQPTVRNYVENRPKYAGLTFPKLFPDSLFPADSEHNKLKASQARDLLSKMLVIDPAKRISVDDALQHPYINVWYDPAEVEAPPPQIYDKQLDEREHTIEEWKELIYKEVMNSEEKTKNGVVKGQPSPSGAAVNSSESLPPSSSVNDISSMSTDQTLASDTDSSLEASAGPLGCCR
As to B3, in the assay on fast axonal transport (setting [1]), the “mean rate for anterograde fast axonal transport” value amounted to 0.9 µM/s and the “retrograde, cytoplasmic dynein-dependent fast axonal transport mean rate” value turned out to be 1.25 µM/s. The “effect on binding of kinesin-1 to microtubules” value in the assay with kinesin-1 heavy chain is “inhibits the binding of kinesin-1 to microtubules”.

B4: JNK1: recombinant, active JNK1 protein (protein, UniProt P45983 1-427, looked up)
Mitogen-activated protein …: MSRSKRDNNFYSVEIGDSTFTVLKRYQNLKPIGSGAQGIVCAAYDAILERNVAIKKLSRPFQNQTHAKRAYRELVLMKCVNHKNIIGLLNVFTPQKSLEEFQDVYIVMELMDANLCQVIQMELDHERMSYLLYQMLCGIKHLHSAGIIHRDLKPSNIVVKSDCTLKILDFGLARTAGTSFMMTPYVVTRYYRAPEVILGMGYKENVDLWSVGCIMGEMVCHKILFPGRDYIDQWNKVIEQLGTPCPEFMKKLQPTVRTYVENRPKYAGYSFEKLFPDVLFPADSEHNKLKASQARDLLSKMLVIDASKRISVDEALQHPYINVWYDPSEAEAPPPKIPDKQLDEREHTIEEWKELIYKEVMDLEERTKNGVIRGQPSPLGAAVINGSQHPSSSSSVNDVSSMSTDPTLASDTDSSLEAAAGPLGCCR
For B4, in the assay with fast axonal transport (perfused at 200 nM), the “effect on fast axonal transport” value is listed as “did not show any effect on either direction of fast axonal transport”.
